Test results published in US20250333486A1, “Anti-HSP90 alpha antibody and uses thereof” (NATIONAL HEALTH RESEARCH INSTITUTES, priority 2021, published 2025).
Entries after “also recorded” stand apart in the source; their conditions may differ.

Tests used:
[1] = system: Panc 02 plus EndoMT cell grafts; test: Therapeutic efficacy in desmoplastic mouse PDAC transplant model; format: in vivo; conditions: 5 mg/kg IV, 3 times at 7-day intervals from Day-20
Description: (§1) Mouse experiments were performed with the permission of the Institutional Animal Care and Use Committee of National Health Research Institutes (NHRI-IACUC-106031-A, 109022-M2-S02, and 109196-A). To establish a desmoplastic tumor transplant model, C57BL/6 mice at 12 weeks of age were subcutaneously inoculated with a mix of Panc 02 cells and EndoMT-derived CAFs (i.e. OPN-treated 3B-11 cells). See Fan C S, Chen L L, Hsu T A, et al. Endothelial-mesenchymal transition harnesses HSP90α-secreting M2-macrophages to exacerbate pancreatic ductal adenocarcinoma. J Hematol Oncol 2019;12:138; and Chua K V, Fan C S, Chen L L, Chen C C, Hsieh S C, Huang T S. Octyl gallate induces pancreatic ductal adenocarcinoma cell apoptosis and suppresses endothelial-mesenchymal transition-promoted M2-macrophages, HSP90α secretion, and tumor growth. Cells 2020;9(1):91. Sizes of developing tumors were superficially measured with a Vernier caliper, and tumor volumes were calculated with the formula ½×length×width^2. Real tumors were weighed when mice were sacrificed. To establish a desmoplastic tumor transplant model in humanized mice, NOD-SCID IL2R^null (ASID) mice transplanted with human hematopoietic stem cells (hHSC) were subcutaneously inoculated with a mix of PANC-1 cells and OPN-treated HUVECs. The employed hHSC-transplanted ASID mice were produced from the National Laboratory Animal Center (Taipei, Taiwan) and all contained human CD45^+ cell levels more than 38% of total lymphocytes. To establish an M2-macrophage-exacerbated mouse PDAC model, C57BL/6 mice were subcutaneously inoculated with a mix of Panc 02 cells and rHSP90α-treated BMDMs. Additionally, LSL-KrasG12D/Pdx1-Cre transgenic mice were adopted as a spontaneously PDAC-developing mouse model to evaluate the therapeutic efficacy of HH01 antibody. LSL-KrasG12D and Pdx1-Cre breeder mice were obtained from the Mouse Models of Human Cancers Consortium Repository of the National Cancer Institute (Frederick, Maryland, USA). LSL-KrasG12D mice were crossed with Pdx1-Cre mice to generate LSL-KrasG12D/Pdx1-Cre mice.
(§2) For assaying the HSP90α-binding activities of the prepared antibodies, 96-well plates were coated with 12.5 ng/ml of rHSP90α in the capture buffer (BioLegend, San Diego, CA, USA) by overnight incubation at 4° C. The coated plates were washed twice with PBST and then blocked with PBST plus 3% bovine serum albumin (BSA). […] The reactions were stopped by the addition of 0.5 M H2SO4, and OD450 values were measured by an Infinite M200 microplate reader (TECAN, Männedorf, Switzerland). Additionally, the immunoglobulin (IgG) isotype characterization of anti-HSP90α antibodies was performed by using the Mouse Ig Isotyping ELISA Ready-Set-Go!™ Kit (eBioscience™, Thermo Fisher Scientific, Waltham, MA, USA). […]

[2] = system: K-Ras^G12D-induced PDAC in LSL-KrasG12D/Pdx1-Cre mice; test: Therapeutic efficacy in K-Ras^G12D-induced desmoplastic mouse PDAC model; format: in vivo
Description: as §1
(§3) For assaying the HSP90α-binding activities of the prepared antibodies, 96-well plates were coated with 12.5 ng/ml of rHSP90α in the capture buffer (BioLegend, San Diego, CA, USA) by overnight incubation at 4° C. The coated plates were washed twice with PBST and then blocked with PBST plus 3% bovine serum albumin (BSA). The prepared antibodies were applied and incubated 2 h at room temperature. After three washes with PBST, horseradish peroxidase-conjugated secondary antibody was added and incubated at 37° C. for another 1 h. After three washes, 0.3 mg/ml of 3,3′,5,5′-tetramethylbenzidine in 0.015% H2O2 was added into each well and incubated in the dark at room temperature for 10 min. The reactions were stopped by the addition of 0.5 M H2SO4, and OD450 values were measured by an Infinite M200 microplate reader (TECAN, Männedorf, Switzerland). Additionally, the immunoglobulin (IgG) isotype characterization of anti-HSP90α antibodies was performed by using the Mouse Ig Isotyping ELISA Ready-Set-Go!™ Kit (eBioscience™, Thermo Fisher Scientific, Waltham, MA, USA). The ELISA protocol was also used to assay the secreted HSP90α levels of mouse serum samples as described previously. See Chen J S, Hsu Y M, Chen C C, Chen L L, Lee C C, Huang T S. Secreted heat shock protein 90α induces colorectal cancer cell invasion through CD91/LRP-1 and NF-κB-mediated integrin αV expression. J Biol Chem 2010;285(33):25458-66.
Mouse paraffin-embedded tissue sections were deparaffinized by xylene and rehydrated by a series of ethanol dilutions. Masson trichrome staining was performed using a Trichrome Stain Kit (ScyTek Laboratories Inc., Utah, USA) according to the manufacturer's protocol. The stained sections were dehydrated in graded ethanol solutions and xylene, and finally mounted with mounting solution overnight in the dark at room temperature. […]

[3] = system: Panc 02 plus EndoMT cell grafts; test: Prophylactic efficacy in desmoplastic mouse PDAC transplant model; format: in vivo; conditions: 5 mg/kg IV, 8 doses at 3-day intervals from Day-4
Description: as §1, §2

[4] = system: ARPE-19 retinal pigmented epithelial cells; test: Retinal cell toxicity assay (MTS); format: cell-based, human; conditions: 72 h, up to 594.3 nM (100 μg/ml)
Description: ARPE-19 cells were seeded onto 96-well plates at a density of 4000 cells per well, and then treated in triplicate with various concentrations of 17-AAG or anti-HSP90α antibody HH01 for 72 h. The 3-(4,5-dimethylthiazol-2-yl)-5-(3-carboxymethoxyphenyl)-2-(4-sulfophenyl)-2H-tetrazolium (MTS; Sigma-Aldrich) assay was employed and OD490 was measured to evaluate cell viability upon each treatment.

[5] = system: Panc 02 plus rHSP90α-treated BMDM cell grafts; test: Therapeutic efficacy in M2-macrophage-exacerbated mouse PDAC model; format: in vivo
Description: as §1, §3
Mouse tissue sections with a 4-μm thickness were deparaffinized by xylene and rehydrated in graded ethanol dilutions. Antigen retrieval was performed by heating the sections for 15 min in 10 mM of citrate buffer, pH 6.0, under high pressure. The endogenous peroxidase activity was blocked by 0.3% H2O2. Before staining, the sections were blocked 30 min with PBS plus 3% BSA at room temperature in a humidified chamber. […]

[6] = Mouse splenic enlargement; conditions: in vivo
[7] = 5 mg/kg from Day-27, second dose after 7 days
[8] = immunohistofluorescent staining of tumor tissues

B1: HH01: humanized anti-HSP90α IgG1 antibody, mutant of Clone-2-chimera; VH SEQ ID NO: 12, VL SEQ ID NO: 17 (antibody, V domains shown)
VH: EVQLVESGGGLVQPGGSLRLSCAASGFTFKTYAMNWVRQAPGQGLEWVARIRSKSRNYATYYADSVKDRFTISRDDSKNQFYLQMNNLRTEDTAVYYCVVGGSGFDYWGQGTTLTVSS
VL: DVVMTQTPLSLPVSLGDQASISCRSSQSIVHSNGNTYLEWYLQKPGQSPQLLIYKVSNRFSGVPDRFSGSGSGTDFTLTISSVEAEDLGVYYCFQGSHVPWTFGGGTKLEIK
modifications: Heavy chain variable region; Light chain variable region
serum HSP90α levels [1]: significant decreases
tumor desmoplasia [1]: significant decreases
tumor growth by weight on Day-41 [1]: indeed repressed
tumor growth kinetics [1]: totally suppressed
mice still surviving on Day-450 ([2]; 5 mg/kg IV, 10-dose schedule from 6 months of age): 7 of 9
median survival time ([2]; 5 mg/kg IV, 10-dose schedule, Kaplan-Meier, end point Day-450): > 450 days
liver desmoplasia ([2]; Masson trichrome staining): significant improvement
elevation of serum HSP90α levels ([2]; after vs. before treatments): effectively abolished
pancreatic desmoplasia ([2]; mice still surviving on Day-450): drastically recovered
tumor nodules on livers ([2]; one mouse per group): fewer nodules than IgG-treated mouse
kinetics of the tumor growth [3]: potently suppressed
serum HSP90α levels [3]: significantly reduced
tumor desmoplasia (Masson trichrome) [3]: significantly prevented
tumor sizes (weights) on Day-30 [3]: significantly repressed
cytotoxicity in ARPE-19 cells [4]: did not cause any obvious cytotoxicity; also recorded: not cytotoxic
elevation of serum HSP90α levels [5, 7]: significantly suppressed
tumor volume [5, 7]: drastic tumor shrinkage upon HH01 treatment was observed immediately after 3 days
tumors on Day-42 [5, 7]: shrank significantly
CD4^+TNF-α^+ (effective T) cells [5, 8]: both increased
CD8^+TNF-α^+ (cytotoxic T) cells [5, 8]: both increased
F4/80^+Arginase1^+ (M2) cells [5, 8]: decrease
F4/80^+iNOS^+ (M1) cells [5, 8]: increase
CD4^+ and CD8^+ cell levels in tumor (immunohistochemistry) ([5]; tumor samples): effectively restored
M2-macrophages in tumor (CD163, CD204 immunohistochemistry) ([5]; tumor samples): M2-macrophage reduction
mouse splenic enlargement [6]: will not cause mouse splenic enlargement
